Measured values from patent US20160289338A1 (OXFORD BIOTHERAPEUTICS, published 2016).

Columns and labels:
[1] = target: T1, human Matriptase (cell-surface) (human, UniProt Q9Y5Y6 1-855); test: cell-based or functional assay
T1 sequence: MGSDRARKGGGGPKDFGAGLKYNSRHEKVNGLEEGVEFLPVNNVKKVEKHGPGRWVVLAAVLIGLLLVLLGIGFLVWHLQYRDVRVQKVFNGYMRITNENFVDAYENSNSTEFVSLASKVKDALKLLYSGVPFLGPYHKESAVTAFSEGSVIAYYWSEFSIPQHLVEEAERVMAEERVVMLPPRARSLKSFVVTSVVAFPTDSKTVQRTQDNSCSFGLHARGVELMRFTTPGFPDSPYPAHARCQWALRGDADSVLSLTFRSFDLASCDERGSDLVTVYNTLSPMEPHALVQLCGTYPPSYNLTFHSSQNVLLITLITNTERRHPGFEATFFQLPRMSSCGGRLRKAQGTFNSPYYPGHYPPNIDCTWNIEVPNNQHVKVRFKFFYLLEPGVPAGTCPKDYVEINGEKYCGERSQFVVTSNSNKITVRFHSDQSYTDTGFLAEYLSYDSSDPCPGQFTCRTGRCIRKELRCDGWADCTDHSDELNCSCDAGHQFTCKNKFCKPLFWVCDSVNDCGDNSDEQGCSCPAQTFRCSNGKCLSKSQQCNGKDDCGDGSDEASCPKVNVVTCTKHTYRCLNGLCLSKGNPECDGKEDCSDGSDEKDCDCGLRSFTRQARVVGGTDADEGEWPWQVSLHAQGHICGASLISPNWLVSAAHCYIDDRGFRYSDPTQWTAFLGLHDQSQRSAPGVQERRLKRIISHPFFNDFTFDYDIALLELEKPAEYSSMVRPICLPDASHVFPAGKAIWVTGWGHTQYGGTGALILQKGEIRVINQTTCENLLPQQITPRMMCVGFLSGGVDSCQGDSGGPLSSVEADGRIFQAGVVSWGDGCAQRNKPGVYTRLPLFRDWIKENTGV

[2] = target: T1, human Matriptase (cell-surface); test: flow cytometry on SNU-1 cells, PE GMFI
Protocol: The specificity of antibodies against the Matriptase selected in Example 1 was tested by flow cytometry. To test the ability of the antibodies to bind to the cell surface Matriptase protein, the antibodies were incubated with the Matriptase-expressing cells. Cells were washed in FACS buffer (DPBS, 2% FBS), centrifuged and resuspended in 100 μl of the diluted primary Matriptase antibody (also diluted in FACS buffer). The antibody-cell line complex was incubated on ice for 60 min and then washed twice with FACS buffer as described above. The cell-antibody pellet was resuspended in 100 μl of the diluted secondary antibody (also diluted in FACS buffer) and incubated on ice for 60 min on ice. The pellet was washed as before and resuspended in 200 μl FACS buffer. The samples were loaded onto the BD FACScanto II flow sytometer and the data analyzed using the BD FACSdiva software.

[3] = target: T1, human Matriptase (cell-surface); test: flow cytometry on H69 cells, GMFI Facsarray; the legend box prints no unit, nmol/L is the unit of the concentration axis
[4] = target: T1, human Matriptase (cell-surface); test: flow cytometry on HT-29 cells, GMFI Facsarray; the legend box prints no unit, nmol/L is the unit of the concentration axis

B1: Matriptase_A1 (antibody, V domains shown)
VH: EVQLLESGGGLVQPGGSLRLSCAASGFTFRNYDMSWVRQAPGKGLEWVSSISYSGGSTYYADSVKGRFTISRDNSKNTLSLQMNSLRAEDTAVYYCAKRGATPFDYWGQGSLVTVSS
VL: not shown
notes: Fully human monoclonal IgG from a hybridoma of an HCo12 HuMAb Mouse; supernatants were screened for human gamma, kappa antibodies; a human IgG1 isotype control was used in the ADCC assay
[1]
  EC50, MabZAP internalization assay, H69 cells: 0.074 nM
  EC50, MabZAP internalization assay, HT-29 cells: 0.183 nM
[2]
  EC50 (read off the curve): ~0.5 nM
[3]
  EC50: 3.45 nM
[4]
  EC50: 0.222 nM
